The source of these data is paper PMC8706911, “Insights into the Neutralization and DNA Binding of Toxin–Antitoxin System ParESO-CopASO by Structure-Function Studies” (Microorganisms, 2021).

The chains are these.
B1: CopASO (SO_1445), antitoxin of the ParESO-CopASO type II toxin-antitoxin system of prophage CP4So (natural protein, Shewanella oneidensis, UniProt Q8EGZ2 1-102, looked up)
chain: MSTIKPVSVKLDADIKARVEHLAETRKRSSHWMMREAIREYVEREEKREALQQEALRAWEEHQTSGLHVTGDEVVSWLESWGSENEQAALHATNSLHCHCIT
modifications: selenomethionine-substituted in the crystal
notes: CopASO (SO_1445), antitoxin of prophage CP4So, Shewanella oneidensis; called full-length in the complex; 93 residues modelled in CopASO (I), 77 in CopASO (II); also called CopASO (I); CopASO (II)

Data set [1] deals with CopASO (Shewanella oneidensis (prophage CP4So)). Put plainly: ITC. As to conditions: ITC: 20 mM Tris pH 8.0, 100 mM NaCl, 5% (v/v) glycerol, 20 °C; 100-400 uM DNA injected into 10-100 uM protein; one-site model.
Data set [2] concerns CopASO;ParESO (in purified ParESO-CopASO complex) (Shewanella oneidensis (prophage CP4So);Shewanella oneidensis (prophage CP4So)). Nature of the data set: ITC. As to conditions: ITC: 20 mM Tris pH 8.0, 100 mM NaCl, 5% (v/v) glycerol, 20 °C; 100-400 uM DNA injected into 10-100 uM protein; one-site model.
Data set [3] deals with the molecule itself. Put plainly: crystal structure; Se-Met ParESO-CopASO complex, crystallised in 20% PEG3350, 0.2 M tri-sodium citrate at 20 °C; SAD, 3.80 Å.
Data set [4] concerns the target B1. Described as above. The note with it: both partners purified.

A word on the Kd: it is the free concentration of one partner at which half of the binding sites on the other are occupied at equilibrium, for simple one-to-one binding. Read a high Kd as a looser complex. For “TAAGGTATTACCTAGTAGTACTAAG (double strand) [25 bp copASO-parESO promoter duplex]”, the results for the Kd in data set [1] and in data set [2] were 16 nM and 660 nM, respectively.

What is called stoichiometry N is the number of molecules, sites or subunits per partner or assembly. Turning to B1, the “stoichiometry N” value in data set [3] was 2.

B2: ParESO (SO_1444), toxin of the ParESO-CopASO type II toxin-antitoxin system of prophage CP4So (natural protein, Shewanella oneidensis)
chain: MPQIVFTATALRDLERLREFLRSKNPPAAQRAASAIINTIRKLESYPDIGRPIDDNDFSFRELLIDFGDTGYLAMYQYDGGERLTVLCIRHQKEAGY
modifications: selenomethionine-substituted in the crystal
notes: also called ParESO (I); ParESO (II)
In the case of B2, the binding result in data set [4] was “binds”.
